Assay results published in US20230235047A1 (Innovent, published 2023).

B1: HB37A6 (fully human antibody) (antibody, human IgG1, kappa, V domains shown)
VH: EVQLLDSGGGLVQPGGSLRLSCAASGFTFSSYVMSWVRQAPGKGLNWVSTISHSGGSTYYADSVKGRFTISRDNSKNTLYLQMNSLRAEDTAVYYCAIDAPYYDILTGYRYWGQGTLVTVSS
VL: not shown
B2: Positive control antibody Zmab (zolbetuximab) (antibody, human IgG1, kappa, V domains shown)
VH: QVQLQQPGAELVRPGASVKLSCKASGYTFTSYWINWVKQRPGQGLEWIGNIYPSDSYTNYNQKFKDKATLTVDKSSSTAYMQLSSPTSEDSAVYYCTRSWRGNSFDYWGQGTTLTVSS
VL: DIVMTQSPSSLTVTAGEKVTMSCKSSQSLLNSGNQKNYLTWYQQKPGQPPKLLIYWASTRESGVPDRFTGSGSGTDFTLTISSVQAEDLAVYYCQNDYSYPFTFGSGTKLEIKR
B3: Hz69H9 (antibody, human IgG1, kappa, V domains shown)
VH: QVQLVQSGAEVKKPGSSVKVSCKASGYSFSSYNIHWVRQAPGQGLEWMGYIAPFQGDSRYNQKFKGRVTITADKSTSTAYMELSSLRSEDTAVYYCARLNRGNSLDYWGQGTLVTVSS
VL: DIVMTQSPDSLAVSLGERATINCKSSQSLFNSGNQRNYLTWYQQKPGQPPKLLIYWASTRESGVPDRFSGSGSGTDFTLTISSLQAEDVAVYYCQNNYIYPLTFGGGTKVEIKR

Experiments:
[1] = target: T1, human CLDN18.1 on cells (CHO-hCLDN18.1) (human, UniProt P56856 1-261); assay: flow cytometry (FACS) on CHO-hCLDN18.1 cells
T1 construct: whole, on cells; also called human Claudin18.1
Protocol: (§1) The binding of each of the above 9 antibodies to the CHO-S cell lines stably transfected with human CLDN18.2 and human CLDN18.1 (i.e., CHO-hCLDN18.2 and CHO-hCLDN18.1 prepared as described in the Examples) obtained in Example 1 was determined by flow cytometry (FACS). Reference was made to Example 2 for the experimental methods. The experimental data were analyzed using GraphPad Prism software, and FIGS. 1 and 2 were obtained.

[2] = target: T2, human Claudin18.2 protein (P50251802, GenScript) (human, UniProt P56856-2 1-261, limits assumed); assay: BLI (Fortebio Octet Red96), AHC sensor, antibody and human Claudin18.2 protein (GenScript)
T2 construct: also called human CLDN18.2
Protocol: The equilibrium dissociation constant (KD) for binding of the antibodies of the present invention to human CLDN18.2 was determined by bio-layer interferometry (BLI). A BLI affinity assay was conducted according to the existing method (Estep, P et al., High throughput solution based measurement of antibody-antigen affinity and epitope binding. MAbs, 2013.5(2): p. 270-8). The AHC (18-5060, Fortebio) sensor was soaked in SD buffer (lx PBS, BSA 0.1%, Tween-20 0.05%). 100 μL of SD buffer, each antibody and human Claudin18.2 protein (P50251802, GenScript) were added to a 96-well black polystyrene half-area microplate (Greiner, 675076), respectively. The detection was performed using Fortebio Octet Red96, and the KD values were analyzed using Fortebio Octet analysis software.

[3] = target: T2, human Claudin18.2 protein (P50251802, …); assay: SPR (Biacore T200), human Claudin18.2 amine-coupled to the chip, antibody 0-100 nM in the mobile phase, 1:1 model
Protocol: According to the manufacturer's instructions, human Claudin18.2 (GenScrip, P50251802) was coupled to the surface of a CMS chip (GE Healthcare, 29-1496-03) using the amino coupling kit (GE Healthcare, BR-1006-33), and the remaining activation sites were blocked by injection of 1 M ethanolamine after coupling. According to the manufacturer's instructions, the binding and dissociation between the antigen on the chip surface and antibodies in the mobile phase were determined by Biacore (GE Healthcare, T200) to obtain affinity and kinetic constants. The antibodies (0-100 nM) after gradient dilution flowed over the chip surface in an order from low to high concentrations, with the binding time of 180 s and the dissociation time of 600 s. Finally, the chip was regenerated using 10 mM Glycine pH 1.5 (GE Healthcare, BR-1003-54). Kinetic analysis of the data results were performed using Biacore T200 analysis software with a 1:1 binding model.

[4] = target: T3, human CLDN18.2 on cells (CHO-hCLDN18.2, HEK293-hCLDN18.2, KATO III-hCLDN18.2, DAN-G-hCLDN18.2, NUGC-4) (human, UniProt P56856-2 1-261); assay: flow cytometry (FACS) on CHO-hCLDN18.2 cells, MFI against Log[Conc.(nM)]; EC50 from the table under the plot
T3 construct: whole, on cells; NUGC-4 is used untransfected; also called human Claudin18.2
Protocol: as §1

[5] = target: T3, human CLDN18.2 on cells (CHO-hCLDN18.2, …); assay: flow cytometry (FACS) on DAN-G-hCLDN18.2 cells, MFI against Log[Conc (nM)]; EC50 from the table under the plot
Protocol: (§2) Referring to Example 4, the binding of the two antibodies to each of the gastric cancer cell line NUGC-4, the gastric cancer cell line KATO III-hCLDN18.2 and the pancreatic cancer cell line DAN-G-hCLDN18.2 was determined by FACS.

[6] = target: T3, human CLDN18.2 on cells (CHO-hCLDN18.2, …); assay: flow cytometry (FACS) on KATO III-hCLDN18.2 cells, MFI against Log[Conc(nM)]; EC50 from the table under the plot
Protocol: as §2

[7] = target: T3, human CLDN18.2 on cells (CHO-hCLDN18.2, …); assay: flow cytometry (FACS) on the gastric cancer cell line NUGC-4, MFI against Log[Conc(nM)]; EC50 from the table under the plot
Protocol: as §2

[8] = target: T3, human CLDN18.2 on cells (CHO-hCLDN18.2, …); assay: flow cytometry (FACS) on CHO-hCLDN18.2 cells, MFI against Log[Conc.(nM)]; EC50 from the table under the plot; remark: listed apart in the source
Protocol: as §1

[9] = target: T3, human CLDN18.2 on cells (CHO-hCLDN18.2, …); assay: as above; remark: listed apart in the source
Protocol: as §1

Binder	binding result [1]	Kd [2] [nM]	Kd [3] [nM]	koff [3] [s⁻¹]	kon [3] [M⁻¹ s⁻¹]	EC50 [4] [nM]	EC50 [5] [nM]	EC50 [6] [nM]	EC50 [7] [nM]	EC50 [8] [nM]	EC50 [9] [nM]
B1	no binding	0.326	0.72	0.000306	425000	5.51	0.958	0.569	1.08	–	–
B2	–	2.14	–	–	–	3.31	–	–	–	3.12	3.46
B3	–	–	0.299	0.000116	387000	–	1.79	3.25	2.2	–	–
